Among the data in article PMC13483476 (2026) are koff values, retold here.

This test concerns the target 5768-p27 V3 peptide (HIV-1 clade B isolate 5768-p27). The test is described as follows: SPR. A general note: In SPR one partner is held on a chip, and binding of the other changes the refractive index at the surface.

B1: 19b antigen-binding fragment (Fab) (Fab, V domains shown)
VH: EVQLVQSGGALIQPGGSLRLSCAASGFTFVDYAMSWVRQAPGKGLQWVSTIIGSGADTYYTDSVKGRFTISRDNSNNTVHLQMNSLRADDTALYYCVRGVFDLWGQGTLVTVSS
VL: DIVLTQSPPSLSASVGDRVTITCQASQDISDHLSWFQQKPGKAPKLLVYGVSSLEAGVPSRFSVSGSGTHFTFTVNGLQPEDLATYFCQQYDDLPWTFGPGTVVEVK
Broadly, the koff is the first-order rate constant of dissociation. The low end stands for a long-lived complex, the high end for a short-lived complex. B1 came in with a koff of 0.000147 s⁻¹.
